The text below walks through data of patent US5885797.

Series [1] deals with Myogenin (full length, mouse) (mouse) (UniProt P12979).
A further series deals with NLSMyogenin (mouse) (UniProt P12979).
Series [2] addresses Myf5 (full length, mouse) (mouse) (UniProt P24699).
The target in the next series is NLSMyf5 (mouse) (UniProt P24699).
Series [3] concerns the target Myf5 (full length, mouse) (mouse) (UniProt P24699). This is another data set of the same source.
Series [4] has as its target Myogenin (full length, mouse) (mouse) (UniProt P12979). The source holds these as a separate data set.
Series [5] deals with MyoD (full length, mouse) (mouse) (UniProt P10085).
The target of series [6] is Myf5 (full length, mouse) (mouse) (UniProt P24699). The source holds these as a separate data set.
Series [7] addresses E12.
The target in series [8] is T1, Lethal of Scute (AS-C T3) (Drosophila melanogaster (Fruit fly)) (UniProt P09774).
T1 sequence: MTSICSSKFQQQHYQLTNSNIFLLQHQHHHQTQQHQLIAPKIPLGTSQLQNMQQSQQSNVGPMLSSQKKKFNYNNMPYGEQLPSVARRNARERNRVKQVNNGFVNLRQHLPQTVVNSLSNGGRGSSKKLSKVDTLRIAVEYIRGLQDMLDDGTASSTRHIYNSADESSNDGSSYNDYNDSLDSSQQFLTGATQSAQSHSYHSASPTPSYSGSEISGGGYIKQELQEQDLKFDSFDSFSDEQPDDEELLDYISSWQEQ
Briefly: yeast one-hybrid, strain L40, β-galactosidase reporter.

Series [9] concerns the target MyoD (full length, mouse) (mouse) (UniProt P10085). The description is as above.
Series [10] has as its target E12. Described as above.
The target of series [11] is Myf5 (full length, mouse) (mouse) (UniProt P24699). The description is as above.
Series [12] concerns the target MyoDΔN-VP16 (Mus musculus (Mouse)) (UniProt P10085). Nature of the series: yeast two-hybrid, strain L40, β-galactosidase reporter.
For series [13], the target named is MyoDΔC-VP16 (Mus musculus (Mouse)) (UniProt P10085). The series is described as above.
Series [14] has as its target VP16 (Human herpesvirus 1 (strain 17) (HHV-1) (Human herpes simplex virus 1)) (UniProt P06492). Nature of the series: yeast hybrid assay, strain L40, β-galactosidase reporter.
Series [15] has as its target T2, VP16-I-mfa (mouse).
T2 sequence: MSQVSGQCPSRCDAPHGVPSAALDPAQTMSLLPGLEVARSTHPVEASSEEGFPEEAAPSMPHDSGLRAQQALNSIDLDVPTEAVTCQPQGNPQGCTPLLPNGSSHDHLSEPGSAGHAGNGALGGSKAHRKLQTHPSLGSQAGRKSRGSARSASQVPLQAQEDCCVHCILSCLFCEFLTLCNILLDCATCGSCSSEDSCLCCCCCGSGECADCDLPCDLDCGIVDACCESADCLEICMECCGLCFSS
The series is described as above.

In series [16] the target is Myf5 (full length, mouse) (mouse) (UniProt P24699). The description is as above.
Series [17] has as its target VP16-I-mfc (mouse). The series is described as above.
Series [18] addresses VP16-I-mfb (mouse). The series is described as above.
Series [19] deals with VP16-I-mfb (mouse). Briefly: yeast hybrid assay, strain L40, β-galactosidase reporter; this LexA fusion is also active with VP16 alone.
Series [20] addresses T2, VP16-I-mfa (mouse). Described as above.
The target in series [21] is Myf5 (full length, mouse) (mouse) (UniProt P24699). The description is as above.
For series [22], the target named is VP16-I-mfc (mouse). Described as above.
For series [23], the target named is full length Myf5 or myogenin. Nature of the series: yeast one-hybrid, strain L40, β-galactosidase reporter.
The target in series [24] is Myogenin (full length, mouse) (mouse) (UniProt P12979). The series is described as above.
The subject of another series is Myf5 (Mus musculus). Nature of the series: cell_activity. Particulars: NIH3T3.
A further series deals with Myogenin (Mus musculus). Nature of the series: cell_activity. Particulars: NIH3T3.
The subject of a further series is MyoD (Mus musculus). Nature of the series: cell_activity. Particulars: NIH3T3.
Series [25] relates to E12. Nature of the series: cell_activity. Particulars: NIH3T3; 76.3% with I-mfa.

Sequence of LexA-I-mfa (P0A7C2 other isoform, or with tags, fused parts or gaps limits assumed): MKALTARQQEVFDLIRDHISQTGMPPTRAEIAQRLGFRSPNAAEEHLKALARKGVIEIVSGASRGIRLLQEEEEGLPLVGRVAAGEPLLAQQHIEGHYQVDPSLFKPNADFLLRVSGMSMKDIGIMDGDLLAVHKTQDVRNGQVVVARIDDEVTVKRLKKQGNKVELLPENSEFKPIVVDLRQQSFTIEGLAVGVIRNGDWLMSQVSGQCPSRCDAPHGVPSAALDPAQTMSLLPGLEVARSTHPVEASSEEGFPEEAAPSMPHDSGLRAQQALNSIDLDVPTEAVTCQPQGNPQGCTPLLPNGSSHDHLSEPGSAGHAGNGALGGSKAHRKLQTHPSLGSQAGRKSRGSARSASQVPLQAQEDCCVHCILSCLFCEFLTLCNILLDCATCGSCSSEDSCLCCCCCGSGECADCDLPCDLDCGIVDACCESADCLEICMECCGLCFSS
Sequence of LexA-I-mfb (P0A7C2 other isoform, or with tags, fused parts or gaps limits assumed): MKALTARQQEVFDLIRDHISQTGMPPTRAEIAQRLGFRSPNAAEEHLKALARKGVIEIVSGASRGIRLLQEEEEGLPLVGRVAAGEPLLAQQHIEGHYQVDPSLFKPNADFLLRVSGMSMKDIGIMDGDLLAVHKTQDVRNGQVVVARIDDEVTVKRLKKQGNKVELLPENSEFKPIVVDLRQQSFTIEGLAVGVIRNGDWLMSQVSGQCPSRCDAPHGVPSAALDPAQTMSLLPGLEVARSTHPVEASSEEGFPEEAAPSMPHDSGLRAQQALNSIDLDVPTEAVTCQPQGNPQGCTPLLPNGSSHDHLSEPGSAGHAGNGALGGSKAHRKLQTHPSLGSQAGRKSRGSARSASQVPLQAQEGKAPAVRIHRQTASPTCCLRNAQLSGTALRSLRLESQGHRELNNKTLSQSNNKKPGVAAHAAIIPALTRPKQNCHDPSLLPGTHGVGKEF
Sequence of LexA-I-mfc (P0A7C2 other isoform, or with tags, fused parts or gaps limits assumed): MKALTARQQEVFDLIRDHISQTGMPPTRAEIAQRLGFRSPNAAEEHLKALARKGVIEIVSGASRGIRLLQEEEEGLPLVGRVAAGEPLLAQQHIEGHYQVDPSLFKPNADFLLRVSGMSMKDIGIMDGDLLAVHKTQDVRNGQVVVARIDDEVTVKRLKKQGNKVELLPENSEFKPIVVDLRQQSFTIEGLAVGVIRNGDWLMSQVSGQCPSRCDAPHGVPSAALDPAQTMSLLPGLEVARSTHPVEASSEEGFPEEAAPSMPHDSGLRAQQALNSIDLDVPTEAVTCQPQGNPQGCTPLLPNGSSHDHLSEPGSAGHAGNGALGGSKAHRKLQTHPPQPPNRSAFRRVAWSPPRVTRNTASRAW
Sequence of LexA-I-mfa (203-246) (P0A7C2 other isoform, or with tags, fused parts or gaps limits assumed): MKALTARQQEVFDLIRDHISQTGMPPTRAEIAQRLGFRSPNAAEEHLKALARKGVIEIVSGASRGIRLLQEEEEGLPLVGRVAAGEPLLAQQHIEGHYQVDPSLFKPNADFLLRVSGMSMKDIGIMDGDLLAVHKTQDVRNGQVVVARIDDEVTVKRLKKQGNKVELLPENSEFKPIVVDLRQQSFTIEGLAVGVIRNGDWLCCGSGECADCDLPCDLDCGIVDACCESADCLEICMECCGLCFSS
Sequence of Myogenin (full length, mouse) (mouse) (P12979 whole entry): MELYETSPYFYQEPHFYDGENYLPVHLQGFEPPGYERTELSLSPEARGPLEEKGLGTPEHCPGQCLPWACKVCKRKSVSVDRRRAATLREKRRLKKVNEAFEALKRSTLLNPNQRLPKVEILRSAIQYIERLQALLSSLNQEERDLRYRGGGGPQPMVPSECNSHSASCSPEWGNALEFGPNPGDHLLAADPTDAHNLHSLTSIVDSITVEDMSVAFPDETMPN
Sequence of LexA-I-mfa (163-246) (P0A7C2 other isoform, or with tags, fused parts or gaps limits assumed): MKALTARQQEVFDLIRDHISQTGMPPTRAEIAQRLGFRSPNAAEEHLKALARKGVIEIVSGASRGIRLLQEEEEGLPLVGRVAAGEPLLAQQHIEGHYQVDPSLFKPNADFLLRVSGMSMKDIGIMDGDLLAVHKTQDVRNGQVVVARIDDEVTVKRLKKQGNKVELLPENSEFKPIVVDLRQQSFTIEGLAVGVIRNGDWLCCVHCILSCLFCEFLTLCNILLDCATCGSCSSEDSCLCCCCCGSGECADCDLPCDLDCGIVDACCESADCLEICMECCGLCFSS
Sequence of LexA (P0A7C2 whole entry): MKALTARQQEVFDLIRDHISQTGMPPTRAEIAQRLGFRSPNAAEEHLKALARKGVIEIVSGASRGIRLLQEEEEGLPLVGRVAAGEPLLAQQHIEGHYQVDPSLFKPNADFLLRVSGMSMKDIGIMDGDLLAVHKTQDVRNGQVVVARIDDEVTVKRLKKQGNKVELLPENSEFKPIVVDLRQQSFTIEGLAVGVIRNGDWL

On to HA-I-mfa, for which the Relative CAT Activity (%), experiment of Table 7 turned out to be 0.6% in series [1], 7.5% in the series with NLSMyogenin (mouse), 0.1% in [2] and 3.7% with NLSMyf5 (mouse). For the same substance, in series [3], the CAT (%) +Myf5, p4R-TK-CAT reporter, NIH3T3 was 2%. Further, the Relative CAT Activity (%), p4R-TK-CAT, NIH3T3 in series [4] was 1.5%; in series [5], 10.6%; in series [6], 0.9%.
As to HA-I-mfa (1-202), the CAT (%) +E12, p4R-TK-CAT reporter, NIH3T3 with E12 [7] stood at 113%. In series [3], the CAT (%) +Myf5, p4R-TK-CAT reporter, NIH3T3 came out at 5%.
In the series with E12 [7], HA-I-mfa (29-246) gave a CAT (%) +E12, p4R-TK-CAT reporter, NIH3T3 of 81%. The CAT (%) +Myf5, p4R-TK-CAT reporter, NIH3T3 in series [3] came out at 4%.
Regarding HA-I-mfa (87-202), in the series with E12 [7], the CAT (%) +E12, p4R-TK-CAT reporter, NIH3T3 amounted to 89%. In [3], this substance registered a CAT (%) +Myf5, p4R-TK-CAT reporter, NIH3T3 of 7%.
On the same counts, the results for HA-I-mfa (87-246) are 53% and 2%.
The substance HA-I-mfa (163-202) had a CAT (%) +E12, p4R-TK-CAT reporter, NIH3T3 in the series with E12 [7] of 98%. Moreover, the CAT (%) +Myf5, p4R-TK-CAT reporter, NIH3T3 in series [3] turned out to be 44%.
Turning to HA-I-mfa (163-246), the CAT (%) +E12, p4R-TK-CAT reporter, NIH3T3 in the series with E12 [7] worked out at 18%. This substance also came in with a CAT (%) +Myf5, p4R-TK-CAT reporter, NIH3T3 in [3] of 2%.
The substance HA-I-mfa (203-246) showed a CAT (%) +E12, p4R-TK-CAT reporter, NIH3T3 in the series with E12 [7] of 93%. For the same substance, in [3], the CAT (%) +Myf5, p4R-TK-CAT reporter, NIH3T3 was found to be 78%.
Consider HA-I-mfb, for which, in the series with E12 [7], the CAT (%) +E12, p4R-TK-CAT reporter, NIH3T3 came to 100%. In series [3], this substance gave a CAT (%) +Myf5, p4R-TK-CAT reporter, NIH3T3 of 74.5%. The Relative CAT Activity (%), p4R-TK-CAT, NIH3T3 in series [4] is 82.7%; in series [5], 96.5%; in series [6], 94.8%.
On the same counts, the results for HA-I-mfc are 99%, 65%, 68%, 96.1% and 96.4%.
LexA (from UniProt P0A7C2): the β-galactosidase activity (arbitrary units) in [8] came out at 1.6; in series [9] it was 0.6; with E12 [10], 2.3; in series [11] it was 0.9; in series [12] it was 0.9; in series [13] it was 0.6.
Consider “LexA-I-mfa (1-202) (from UniProt P0A7C2)”, for which the β-galactosidase activity (arbitrary units) in series [14] is below 0.1; in the series with VP16-I-mfa (mouse) [15], 95; in series [16], 34.5.
As for “LexA-I-mfa (29-246) (from UniProt P0A7C2)”, the β-galactosidase activity (arbitrary units) in series [14] came to 0.8; with VP16-I-mfa (mouse) [15], 10.1; in [16] it was 84.7.
In the same order, the values of “LexA-I-mfa (87-202) (from UniProt P0A7C2)” are below 0.1, 9.3 and 27.6.
For the substance “LexA-I-mfa (87-246) (from UniProt P0A7C2)”, the β-galactosidase activity (arbitrary units) in series [14] stood at 0.8; in the series with VP16-I-mfa (mouse) [15], 12.5; in series [16], 74.3; with VP16-I-mfc (mouse) [17], 0.7.
“LexA-I-mfa (163-246) (from UniProt P0A7C2)”: the β-galactosidase activity (arbitrary units) amounted to 0.6 with VP16-I-mfb (mouse) [18]; 0.3 in [14]; 3.8 in the series with VP16-I-mfa (mouse) [15]; 71.3 in series [16]; 0.2 with VP16-I-mfc (mouse) [17].
On to “LexA-I-mfa (203-246) (from UniProt P0A7C2)”, for which the β-galactosidase activity (arbitrary units) came to 45.8 in [14]; 39.2 with VP16-I-mfb (mouse) [19]; 95.2 in the series with VP16-I-mfa (mouse) [20]; 57.2 in series [21]; 52.3 in the series with VP16-I-mfc (mouse) [22].
LexA-I-mfa (from UniProt P0A7C2) had a fold β-galactosidase activity over LexA-I-mfa alone in [23] of 70 to 80 fold. Besides, the β-galactosidase activity (arbitrary units) in [8] was determined as 2.3; in series [24] it was 63.6; in [9] it was 4.3; in the series with E12 [10] it was 2.3; in series [11], 68.5; in series [14], 0.5. Besides, the β-galactosidase activity (arbitrary units) with VP16-I-mfa (mouse) [15] amounted to 6.4; in series [16], 66; in series [12], 96.4; in series [13] it was 5.6. The substance also displayed a fold β-galactosidase activity over the LexA-I-mfa control in series [9] of 5 fold.
Take “LexA-I-mfa(163-202) (from UniProt P0A7C2)”: the β-galactosidase activity (arbitrary units) is 0.2 with VP16-I-mfb (mouse) [18], 4.3 in the series with VP16-I-mfa (mouse) [15], 57.1 in series [16] and below 0.1 in the series with VP16-I-mfc (mouse) [17].
With LexA-I-mfb (from UniProt P0A7C2), the β-galactosidase activity (arbitrary units) in [9] was 1.1; in the series with E12 [10] it was 0.6; in series [11], 0.4; with VP16-I-mfb (mouse) [18] it was below 0.1; in series [14] it was below 0.1; with VP16-I-mfa (mouse) [15], 0.2. The substance also had a β-galactosidase activity (arbitrary units) in [16] below 0.1.
For LexA-I-mfc (from UniProt P0A7C2), the β-galactosidase activity (arbitrary units) in [8] was 0.1; in series [9], 0.4; with E12 [10], 1.4; in series [14], below 0.1; with VP16-I-mfa (mouse) [15], below 0.1; with VP16-I-mfc (mouse) [17], below 0.1.
For MCK-CAT reporter, 3.3 kb MCK promoter, the activity with Myf5 (Mus musculus) (reduced to 9% by I-mfa, text names p4R-TK-CAT but Table 6 MCK-CAT) was found to be 79500 CAT units; in the series with Myogenin (Mus musculus) (reduced to 2% by I-mfa, text names p4R-TK-CAT but Table 6 MCK-CAT) it was 33000 CAT units; with MyoD (Mus musculus) (reduced to 27% by I-mfa, text names p4R-TK-CAT but Table 6 MCK-CAT) it was 37200 CAT units.
In the case of “p4R-TK-CAT reporter, four oligomerized MyoD binding sites (E boxes)”, the activity with Myf5 (Mus musculus) (reduced to 0.9% by I-mfa) worked out at 53100 CAT units; with Myogenin (Mus musculus) (reduced to 1.5% by I-mfa), 17400 CAT units; with E12 [25], 53600 CAT units; in the series on MyoD (Mus musculus) (reduced to 10.6% by I-mfa), 55400 CAT units.
